Results published in the supplement of paper PMC10567573.

B1: ACSBG2 (parent)
chain: FAQADALKGTLVSTLKEVKPTVFI
B2: TRIM15 (parent)
chain: LSQMGAQSSGKILLCPLCQEEEQA

Variants of: B1
Test: protein stability index of a GFP-peptide fusion (GPS, HEK-293T) (PSI 1-6); higher = more stable
Details: c terminus: a fixed tail appended
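Further: lentivirally expressed fusions sorted by FACS into six bins by GFP to DsRed ratio, PSI derived from sequencing read proportions per bin multiplied by bin number.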

Q: Which protein stability index does the source give for FAQADALKGTLVSTLKEVKPGVFI [T21G] here?
A: 2.14

Q: Which protein stability index does the source give for FAQADALKGTLVSTLKEVKPHVFI [T21H] here?
A: 1.61

Q: For FAQADALKGTLVSTLKEVKPIVFI [T21I], which protein stability index is on record?
A: 4.12

Q: With FAQADALKGTLVSTLKEVKPKVFI [T21K] as the variant, how does the protein stability index read?
A: 1.14

Q: For FAQADALKGTLVSTLKEVKPMVFI [T21M], which protein stability index is on record?
A: 1.82

Q: For FAQADALKGTLVSTLKEVKPNVFI [T21N], which protein stability index is on record?
A: 1.92

Q: With FAQADALKGTLVSTLKEVKPPVFI [T21P] as the variant, how does the protein stability index read?
A: 1.22

Q: For FAQADALKGTLVSTLKEVKPQVFI [T21Q], which protein stability index is on record?
A: 1.32

Q: For FAQADALKGTLVSTLKEVKPRVFI [T21R], which protein stability index is on record?
A: 2

Q: For FAQADALKGTLVSTLKEVKPSVFI [T21S], which protein stability index is on record?
A: 2.35

Q: For FAQADALKGTLVSTLKEVKPVVFI [T21V], which protein stability index is on record?
A: 4.03

Q: With FAQADALKGTLVSTLKEVKPWVFI [T21W] as the variant, how does the protein stability index read?
A: 3.06

Q: With FAQADALKGTLVSTLKEVKPYVFI [T21Y] as the variant, how does the protein stability index read?
A: 1.64

Q: Which protein stability index does the source give for FAQADALKGTLVSTLKEVKPTAFI [V22A] here?
A: 2.73

Q: Which protein stability index does the source give for FAQADALKGTLVSTLKEVKPTCFI [V22C] here?
A: 2.18

Q: Which protein stability index does the source give for FAQADALKGTLVSTLKEVKPTDFI [V22D] here?
A: 2.99

Q: With FAQADALKGTLVSTLKEVKPTEFI [V22E] as the variant, how does the protein stability index read?
A: 1.94

Q: Which protein stability index does the source give for FAQADALKGTLVSTLKEVKPTFFI [V22F] here?
A: 1.67

Q: Which protein stability index does the source give for FAQADALKGTLVSTLKEVKPTGFI [V22G] here?
A: 2.25

Q: With FAQADALKGTLVSTLKEVKPTHFI [V22H] as the variant, how does the protein stability index read?
A: 1.92

Q: Which protein stability index does the source give for FAQADALKGTLVSTLKEVKPTIFI [V22I] here?
A: 2.43

Q: Which protein stability index does the source give for FAQADALKGTLVSTLKEVKPTKFI [V22K] here?
A: 2.45

Q: Which protein stability index does the source give for FAQADALKGTLVSTLKEVKPTLFI [V22L] here?
A: 1.3

Q: Which protein stability index does the source give for FAQADALKGTLVSTLKEVKPTNFI [V22N] here?
A: 1.98

Q: With FAQADALKGTLVSTLKEVKPTPFI [V22P] as the variant, how does the protein stability index read?
A: 2.02

Q: Which protein stability index does the source give for FAQADALKGTLVSTLKEVKPTQFI [V22Q] here?
A: 2.28

Q: For FAQADALKGTLVSTLKEVKPTRFI [V22R], which protein stability index is on record?
A: 2.94

Q: Which protein stability index does the source give for FAQADALKGTLVSTLKEVKPTSFI [V22S] here?
A: 2.05

Q: For FAQADALKGTLVSTLKEVKPTTFI [V22T], which protein stability index is on record?
A: 2.77

Q: Which protein stability index does the source give for FAQADALKGTLVSTLKEVKPTYFI [V22Y] here?
A: 1.67

Q: Which protein stability index does the source give for FAQADALKGTLVSTLKEVKPTVAI [F23A] here?
A: 1.96

Q: For FAQADALKGTLVSTLKEVKPTVCI [F23C], which protein stability index is on record?
A: 2.52

Q: For FAQADALKGTLVSTLKEVKPTVDI [F23D], which protein stability index is on record?
A: 2.62

Q: With FAQADALKGTLVSTLKEVKPTVEI [F23E] as the variant, how does the protein stability index read?
A: 2.3

Q: For FAQADALKGTLVSTLKEVKPTVGI [F23G], which protein stability index is on record?
A: 2.36

Q: Which protein stability index does the source give for FAQADALKGTLVSTLKEVKPTVHI [F23H] here?
A: 1.75

Q: Which protein stability index does the source give for FAQADALKGTLVSTLKEVKPTVII [F23I] here?
A: 1.65

Q: For FAQADALKGTLVSTLKEVKPTVKI [F23K], which protein stability index is on record?
A: 2.69

Q: For FAQADALKGTLVSTLKEVKPTVLI [F23L], which protein stability index is on record?
A: 2.52

Q: With FAQADALKGTLVSTLKEVKPTVMI [F23M] as the variant, how does the protein stability index read?
A: 1.86

Q: With FAQADALKGTLVSTLKEVKPTVNI [F23N] as the variant, how does the protein stability index read?
A: 1.69

Q: Which protein stability index does the source give for FAQADALKGTLVSTLKEVKPTVPI [F23P] here?
A: 2.76

Q: Which protein stability index does the source give for FAQADALKGTLVSTLKEVKPTVQI [F23Q] here?
A: 2.16

Q: Which protein stability index does the source give for FAQADALKGTLVSTLKEVKPTVRI [F23R] here?
A: 2.64

Q: For FAQADALKGTLVSTLKEVKPTVSI [F23S], which protein stability index is on record?
A: 2.16

Q: With FAQADALKGTLVSTLKEVKPTVTI [F23T] as the variant, how does the protein stability index read?
A: 1.73

Q: With FAQADALKGTLVSTLKEVKPTVVI [F23V] as the variant, how does the protein stability index read?
A: 2.18

Q: With FAQADALKGTLVSTLKEVKPTVWI [F23W] as the variant, how does the protein stability index read?
A: 2.2

Q: For FAQADALKGTLVSTLKEVKPTVYI [F23Y], which protein stability index is on record?
A: 2.32

Q: For FAQADALKGTLVSTLKEVKPTVFA [I24A], which protein stability index is on record?
A: 1.98

Q: Which protein stability index does the source give for FAQADALKGTLVSTLKEVKPTVFC [I24C] here?
A: 2.92

Q: With FAQADALKGTLVSTLKEVKPTVFD [I24D] as the variant, how does the protein stability index read?
A: 2.88

Q: For FAQADALKGTLVSTLKEVKPTVFF [I24F], which protein stability index is on record?
A: 4.5

Q: Which protein stability index does the source give for FAQADALKGTLVSTLKEVKPTVFG [I24G] here?
A: 2.08

Q: For FAQADALKGTLVSTLKEVKPTVFH [I24H], which protein stability index is on record?
A: 2.02

Q: For FAQADALKGTLVSTLKEVKPTVFK [I24K], which protein stability index is on record?
A: 2.41

Q: With FAQADALKGTLVSTLKEVKPTVFL [I24L] as the variant, how does the protein stability index read?
A: 1.05

Q: With FAQADALKGTLVSTLKEVKPTVFM [I24M] as the variant, how does the protein stability index read?
A: 1.16

Q: For FAQADALKGTLVSTLKEVKPTVFN [I24N], which protein stability index is on record?
A: 3.24

Q: Which protein stability index does the source give for FAQADALKGTLVSTLKEVKPTVFP [I24P] here?
A: 2.27

Q: Which protein stability index does the source give for FAQADALKGTLVSTLKEVKPTVFQ [I24Q] here?
A: 2.23

Q: Which protein stability index does the source give for FAQADALKGTLVSTLKEVKPTVFS [I24S] here?
A: 2.27

Q: Which protein stability index does the source give for FAQADALKGTLVSTLKEVKPTVFT [I24T] here?
A: 2.36

Q: For FAQADALKGTLVSTLKEVKPTVFV [I24V], which protein stability index is on record?
A: 1.83

Q: With FAQADALKGTLVSTLKEVKPTVFW [I24W] as the variant, how does the protein stability index read?
A: 1.26

Variants of: B2
Test: as above
Details: c terminus: a fixed tail appended

Q: Which protein stability index does the source give for ASQMGAQSSGKILLCPLCQEEEQA [L1A] here?
A: 3.1

Q: For DSQMGAQSSGKILLCPLCQEEEQA [L1D], which protein stability index is on record?
A: 4.53

Q: For ESQMGAQSSGKILLCPLCQEEEQA [L1E], which protein stability index is on record?
A: 3.99

Q: Which protein stability index does the source give for FSQMGAQSSGKILLCPLCQEEEQA [L1F] here?
A: 2.73

Q: Which protein stability index does the source give for GSQMGAQSSGKILLCPLCQEEEQA [L1G] here?
A: 3.96

Q: Which protein stability index does the source give for HSQMGAQSSGKILLCPLCQEEEQA [L1H] here?
A: 3.94

Q: Which protein stability index does the source give for ISQMGAQSSGKILLCPLCQEEEQA [L1I] here?
A: 3.38

Q: With KSQMGAQSSGKILLCPLCQEEEQA [L1K] as the variant, how does the protein stability index read?
A: 3.7

Q: For MSQMGAQSSGKILLCPLCQEEEQA [L1M], which protein stability index is on record?
A: 3.52

Q: For NSQMGAQSSGKILLCPLCQEEEQA [L1N], which protein stability index is on record?
A: 3.75

Q: For PSQMGAQSSGKILLCPLCQEEEQA [L1P], which protein stability index is on record?
A: 3.44

Q: With QSQMGAQSSGKILLCPLCQEEEQA [L1Q] as the variant, how does the protein stability index read?
A: 4.4

Q: Which protein stability index does the source give for RSQMGAQSSGKILLCPLCQEEEQA [L1R] here?
A: 3.77

Q: With SSQMGAQSSGKILLCPLCQEEEQA [L1S] as the variant, how does the protein stability index read?
A: 3.55

Q: Which protein stability index does the source give for VSQMGAQSSGKILLCPLCQEEEQA [L1V] here?
A: 3.97

Q: For WSQMGAQSSGKILLCPLCQEEEQA [L1W], which protein stability index is on record?
A: 4.43

Q: Which protein stability index does the source give for YSQMGAQSSGKILLCPLCQEEEQA [L1Y] here?
A: 2.65

Q: For LAQMGAQSSGKILLCPLCQEEEQA [S2A], which protein stability index is on record?
A: 2.6

Q: With LDQMGAQSSGKILLCPLCQEEEQA [S2D] as the variant, how does the protein stability index read?
A: 5.08

Q: For LEQMGAQSSGKILLCPLCQEEEQA [S2E], which protein stability index is on record?
A: 4

Q: With LFQMGAQSSGKILLCPLCQEEEQA [S2F] as the variant, how does the protein stability index read?
A: 2.96

Q: For LHQMGAQSSGKILLCPLCQEEEQA [S2H], which protein stability index is on record?
A: 3.43

Q: Which protein stability index does the source give for LIQMGAQSSGKILLCPLCQEEEQA [S2I] here?
A: 1.9

Q: Which protein stability index does the source give for LKQMGAQSSGKILLCPLCQEEEQA [S2K] here?
A: 3.14

Q: For LMQMGAQSSGKILLCPLCQEEEQA [S2M], which protein stability index is on record?
A: 3.58

Q: For LPQMGAQSSGKILLCPLCQEEEQA [S2P], which protein stability index is on record?
A: 4.26

Q: Which protein stability index does the source give for LQQMGAQSSGKILLCPLCQEEEQA [S2Q] here?
A: 4.06

Q: With LRQMGAQSSGKILLCPLCQEEEQA [S2R] as the variant, how does the protein stability index read?
A: 3.7

Q: With LTQMGAQSSGKILLCPLCQEEEQA [S2T] as the variant, how does the protein stability index read?
A: 3.71
